# Assay results from patent US20170355757A1 (Regeneron, published 2017).
# T1: monkey C5-mmh (monkey, UniProt P01031 19-1676 (human entry), limits assumed)
# T1 construct: Recombinant monkey C5 with a C-terminal myc-myc-hexahistidine tag
# T1 chain: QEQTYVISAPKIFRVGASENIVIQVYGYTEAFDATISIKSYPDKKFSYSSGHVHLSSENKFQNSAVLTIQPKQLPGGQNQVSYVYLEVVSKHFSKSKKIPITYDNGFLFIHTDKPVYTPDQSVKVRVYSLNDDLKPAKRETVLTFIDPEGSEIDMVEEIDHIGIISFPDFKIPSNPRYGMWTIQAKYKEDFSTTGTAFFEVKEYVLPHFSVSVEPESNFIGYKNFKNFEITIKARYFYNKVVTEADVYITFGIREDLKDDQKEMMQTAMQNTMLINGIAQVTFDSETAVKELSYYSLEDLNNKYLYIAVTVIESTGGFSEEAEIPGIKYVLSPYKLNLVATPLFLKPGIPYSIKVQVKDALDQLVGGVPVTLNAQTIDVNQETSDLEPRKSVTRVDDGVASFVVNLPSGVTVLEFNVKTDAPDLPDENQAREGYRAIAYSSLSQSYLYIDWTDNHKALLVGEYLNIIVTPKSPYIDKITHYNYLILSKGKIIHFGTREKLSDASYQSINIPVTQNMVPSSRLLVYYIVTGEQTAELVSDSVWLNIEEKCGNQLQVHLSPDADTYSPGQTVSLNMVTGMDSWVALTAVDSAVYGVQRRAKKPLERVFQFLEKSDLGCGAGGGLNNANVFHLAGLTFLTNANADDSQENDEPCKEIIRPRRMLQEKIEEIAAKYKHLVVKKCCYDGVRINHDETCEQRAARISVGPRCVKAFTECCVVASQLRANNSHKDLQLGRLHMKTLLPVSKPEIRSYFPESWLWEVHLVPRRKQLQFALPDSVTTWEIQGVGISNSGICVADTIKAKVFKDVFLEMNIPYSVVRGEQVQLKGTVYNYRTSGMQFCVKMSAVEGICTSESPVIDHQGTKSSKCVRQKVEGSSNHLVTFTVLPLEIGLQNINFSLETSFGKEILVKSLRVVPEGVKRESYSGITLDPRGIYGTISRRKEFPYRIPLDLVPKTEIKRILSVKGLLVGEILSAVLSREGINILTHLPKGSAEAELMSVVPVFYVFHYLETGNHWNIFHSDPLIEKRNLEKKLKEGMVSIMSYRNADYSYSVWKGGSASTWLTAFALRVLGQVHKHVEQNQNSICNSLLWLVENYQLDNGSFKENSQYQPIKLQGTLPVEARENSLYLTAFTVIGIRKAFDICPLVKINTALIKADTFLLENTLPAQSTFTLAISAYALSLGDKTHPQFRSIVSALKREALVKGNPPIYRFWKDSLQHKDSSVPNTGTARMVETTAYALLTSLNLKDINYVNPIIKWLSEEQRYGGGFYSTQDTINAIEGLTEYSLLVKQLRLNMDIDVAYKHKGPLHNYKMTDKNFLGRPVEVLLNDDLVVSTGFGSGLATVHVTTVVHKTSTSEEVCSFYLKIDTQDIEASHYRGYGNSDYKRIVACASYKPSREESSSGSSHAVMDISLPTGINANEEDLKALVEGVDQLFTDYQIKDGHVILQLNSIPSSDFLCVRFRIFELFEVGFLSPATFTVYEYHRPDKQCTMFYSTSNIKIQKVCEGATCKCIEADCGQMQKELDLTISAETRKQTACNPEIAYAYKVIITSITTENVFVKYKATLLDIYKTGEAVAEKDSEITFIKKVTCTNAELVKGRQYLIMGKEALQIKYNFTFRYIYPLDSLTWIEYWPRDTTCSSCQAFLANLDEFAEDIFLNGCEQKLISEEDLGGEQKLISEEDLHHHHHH
# How the values were obtained:
# human C5 R885C-mmh [1] = target: T2, human C5 R885C-mmh (human, UniProt P01031 19-1676); assay: SPR, mAb captured via anti-hFc, 37C
# T2 construct: also called human C5 variant R885C
# Experimental: (§1) Equilibrium dissociation constants (KD values) for C5 binding to purified anti-C5 antibodies were determined using a real-time surface plasmon resonance biosensor assay on a Biacore T200 instrument. The Biacore sensor surface was derivatized by amine coupling with a monoclonal mouse anti-human Fc antibody (GE Healthcare, # BR-1008-39) to capture anti-C5 antibodies expressed with human Fc constant regions. Biacore binding studies were conducted in HBST running buffer (0.01M HEPES pH 7.4, 0.15M NaCl, 3 mM EDTA, 0.05% v/v Surfactant P20).
# (§2) Human C5 was obtained from a commercial source (EMD). Other C5 reagents were expressed with a C-terminal myc-myc-hexahistidine tag (subsequently referred to as C5-mmh). […] Association of all the C5 reagents to each of the captured monoclonal antibodies was monitored for 3 minutes and their dissociation in HBST running buffer was monitored for 8 minutes. All the binding kinetics experiments were performed at either 25° C. or 37° C. Kinetic association (kₐ) and dissociation (kd) rate constants were determined by fitting the real-time sensorgrams to a 1:1 binding model using Scrubber 2.0c curve fitting software. Binding dissociation equilibrium constants (KD) and dissociative half-lives (t %) were calculated from the kinetic rate constants as: KD (M)=kd/kₐ and t_{1/2} (min)=In2/(60×kd)
# human C5 R885H-mmh [2] = target: T3, human C5 R885H-mmh (human, UniProt P01031 19-1676); assay: SPR, mAb captured via anti-hFc, 37C
# T3 construct: also called human C5 variant R885H
# Experimental: as §1, §2
# monkey C5-mmh = target: T1, monkey C5-mmh; assay: SPR, mAb captured via anti-hFc, 37C
# Experimental: as §1, §2
# human C5 R885C-mmh [3] = target: T2, human C5 R885C-mmh; assay: SPR, mAb captured via anti-hFc, 25C
# Experimental: as §1, §2
# human C5 R885H-mmh [4] = target: T3, human C5 R885H-mmh; assay: SPR, mAb captured via anti-hFc, 25C
# Experimental: as §1, §2
Binder,100 nM Human C5 R885C-mmh Bound (RU) (human C5 R885C-mmh [1]),Kd (human C5 R885C-mmh [1]) [nM],koff (human C5 R885C-mmh [1]) [s⁻¹],kon (human C5 R885C-mmh [1]) [M⁻¹ s⁻¹],t1/2 (human C5 R885C-mmh [1]) [min],100 nM Human C5 R885H-mmh Bound (RU) (human C5 R885H-mmh [2]),Kd (human C5 R885H-mmh [2]) [nM],koff (human C5 R885H-mmh [2]) [s⁻¹],kon (human C5 R885H-mmh [2]) [M⁻¹ s⁻¹],t1/2 (human C5 R885H-mmh [2]) [min],100 nM monkey C5-mmh Bound (RU) (monkey C5-mmh),Kd (monkey C5-mmh) [nM],koff (monkey C5-mmh) [s⁻¹],kon (monkey C5-mmh) [M⁻¹ s⁻¹],t1/2 (monkey C5-mmh) [min],100 nM Human C5 R885C-mmh Bound (RU) (human C5 R885C-mmh [3]),Kd (human C5 R885C-mmh [3]) [nM],koff (human C5 R885C-mmh [3]) [s⁻¹],kon (human C5 R885C-mmh [3]) [M⁻¹ s⁻¹],t1/2 (human C5 R885C-mmh [3]) [min],also measured
"H4H12176P2 (antibody, human IgG4, V domains shown, Human IgG4 Fc with S108P hinge mutation (H4H)) VH: EVQLVESGGGLVQPGGSLRLSCAASGFHSNRYWMDWVRQAPGKGLEWVANIKQDGSEENYVDSVKGRFTISRDNAKNSLYLQMNSLRAEDTAVYYCARDRSTSWVPYWFFDLWGRGTLVTVSS VL: not shown",55,7.32,0.00103,141000,11,69,3.73,0.000958,257000,12,47,9.6,0.00129,135000,9,63,2.03,0.000218,107000,53,100 nM Human C5 R885H-mmh Bound (RU) (human C5 R885H-mmh [4]): 65 RU; Kd (human C5 R885H-mmh [4]): 1.22 nM; koff (human C5 R885H-mmh [4]): 0.000217 s⁻¹; kon (human C5 R885H-mmh [4]): 178000 M⁻¹ s⁻¹; t1/2 (human C5 R885H-mmh [4]): 53 min
"H4H12169P (antibody, human IgG4, V domains shown, Human IgG4 Fc with S108P hinge mutation (H4H)) VH: EVQLVESGGGLAQPGGSLRLSCAASGFTFRSYAMSWVRQAPGKGPEWVSGIGGNGVTTYYADSVKGRFTISRDNSKNTLFLQMNSLRAEDTAVYYCVQGGLGGYFTGYWGQGTLVTVSS VL: DIQMTQSPSSLSASVGDRVTITCRASQSISTYLNWYQQNPGKAPKLLIFDASSLQSGVPSRFSGSGSGTDFTLTIRGLQPEDFATYYCQQSYSAPLTFGGGTKVEIK",75,2.24,0.000737,329000,16,79,1.72,0.000739,429000,16,64,14.3,0.00361,251000,3,168,0.251,6.99e-05,278000,165,100 nM Human C5 R885H-mmh Bound (RU) (human C5 R885H-mmh [4]): 173 RU; Kd (human C5 R885H-mmh [4]): 0.147 nM; koff (human C5 R885H-mmh [4]): 7.09e-05 s⁻¹; kon (human C5 R885H-mmh [4]): 484000 M⁻¹ s⁻¹; t1/2 (human C5 R885H-mmh [4]): 163 min
"H4H12183P2 (antibody, human IgG4, V domains shown, Human IgG4 Fc with S108P hinge mutation (H4H)) VH: QVQLQESGPALVKPSQTLSLTCTVSGGSIIRGSTYWSWVRQFPGKGLEWIGYSYYSGTAYYNPSLESRATISVDTSKNQFSLNLKSVTAADTAVYYCTREIGVAGLFDIWGQGTLVTVSS VL: not shown",25,19.5,0.000997,51200,12,36,7.43,0.000712,95800,16,13,118,0.00637,54000,2,80,0.737,2.2e-05,29900,525,100 nM Human C5 R885H-mmh Bound (RU) (human C5 R885H-mmh [4]): 99 RU; Kd (human C5 R885H-mmh [4]): 1.16 nM; koff (human C5 R885H-mmh [4]): 4.37e-05 s⁻¹; kon (human C5 R885H-mmh [4]): 37700 M⁻¹ s⁻¹; t1/2 (human C5 R885H-mmh [4]): 264 min
